Source: US12077763B2, “RNA-based control of powdery mildew” (Greenlight Biosciences, Inc., priority 2021, dated 2024)

System: E. necator
Assay: Leaf disc assay, dry inoculum (settling tower), decrease in disease severity / hyphal growth (Example 2)
Settings: decrease in disease severity (hyphal growth) relative to untreated control, value ± SE; for % decrease =/− SE TP1: time point 1 (untreated control hyphal growth ≥50%); for % decrease =/− SE TP2: time point 2

Molecule | % decrease =/− SE TP1 | % decrease =/− SE TP2
GS3301 (nucleic acid) sense: CAACAGGGACCAGUUACCCUACACCUACUGGAGGUUACUCUGAAGAGCCCUACCACUAUAAAGGUGUCAAGCUAGGUCAUUGAGAGGAUUGAGUUACGAAAUUUGAUUGCAGCCACGCCUUCGACUUCAACCGAGAAGAGUUCCAAUCUCCCUCUUAGACGCAGGACUACUCUCACGAUACUUCUGUCUCUACUUCUUCUCAUGAGCACGCUAAUACUCUCUAAGCCUCCGUUGAUGUGUUGAAAGACAGGCACCUCAGUUUUGAUUCUAUUCAGCUCGGCAAACAUGUUGUGUACAUUCAUAGACUGAAUUUCUUUUUUAUUAUUU antisense: AAAUAAUAAAAAAGAAAUUCAGUCUAUGAAUGUACACAACAUGUUUGCCGAGCUGAAUAGAAUCAAAACUGAGGUGCCUGUCUUUCAACACAUCAACGGAGGCUUAGAGAGUAUUAGCGUGCUCAUGAGAAGAAGUAGAGACAGAAGUAUCGUGAGAGUAGUCCUGCGUCUAAGAGGGAGAUUGGAACUCUUCUCGGUUGAAGUCGAAGGCGUGGCUGCAAUCAAAUUUCGUAACUCAAUCCUCUCAAUGACCUAGCUUGACACCUUUAUAGUGGUAGGGCUCUUCAGAGUAACCUCCAGUAGGUGUAGGGUAACUGGUCCCUGUUG | 32 ± 5% | 0 ± 9%
GS3297 (nucleic acid) sense: GAGAAGAGGUCCGUGAGAAUUUUGACUCAUCUUUUGCCGCUCUUUAUCAUGAUCUUGAUAUGGGAUUUACACCGAUCAACUUUACAUUUUACUGGGCACCUCUACCUUGGAAUCGUGCUCGUGAUCAUGCCCAAAGAACUGUUGCUAGGACUUAUAUGAAUAUAAUCCAAGCUCGUACCCUCCUCUUCCCCUUCCCCUUCAUUGAACCUCGCUCCAAGGGGGCUUUAUGGGAAUCUGCCUCGUAGUAUAAAGUUCUGCAGCUGGCUCUACGGAUUGCAUCUACAACAACUACAACAUCAUCAUCAUCAUCAUCUUCAUCUUCAUCUUCUCCACCUUCAUAAGCUUCUACGUUUU antisense: AAAACGUAGAAGCUUAUGAAGGUGGAGAAGAUGAAGAUGAAGAUGAUGAUGAUGAUGAUGUUGUAGUUGUUGUAGAUGCAAUCCGUAGAGCCAGCUGCAGAACUUUAUACUACGAGGCAGAUUCCCAUAAAGCCCCCUUGGAGCGAGGUUCAAUGAAGGGGAAGGGGAAGAGGAGGGUACGAGCUUGGAUUAUAUUCAUAUAAGUCCUAGCAACAGUUCUUUGGGCAUGAUCACGAGCACGAUUCCAAGGUAGAGGUGCCCAGUAAAAUGUAAAGUUGAUCGGUGUAAAUCCCAUAUCAAGAUCAUGAUAAAGAGCGGCAAAAGAUGAGUCAAAAUUCUCACGGACCUCUUCUC | 12 ± 6% | 22 ± 7%
GS3304 (nucleic acid) sense: GUUACGCAUCGCCAACAGGGACCAGUUACCCUACACCUACUGGAGGUUACUCUGAAGAGCCCUACCACUAUAAAGGUGUCAAGCUAGGUCAUUGAGAGGAUUGAGUUACGAAAUUUGAUUGCAGCCACGCCUUCGACUUCAACCGAGAAGAGUUCCAAUCUCCCUCUUAGACGCAGGACUACUCUCACGAUACUUCUGUCUCUACUUCUUCUCAUGAGCACGCUAAUACUCUCUAAGCCUCCGUUGAUGUGUUGAAAGACAGGCACCUCAGUUUUGAUUCUAUUCAGCUCGGCAAACAUGUUGUGUACAUUCAUAGACUGAAUUUCUUUUUUAUUAUUUUUUUCCAAAUA antisense: UAUUUGGAAAAAAAUAAUAAAAAAGAAAUUCAGUCUAUGAAUGUACACAACAUGUUUGCCGAGCUGAAUAGAAUCAAAACUGAGGUGCCUGUCUUUCAACACAUCAACGGAGGCUUAGAGAGUAUUAGCGUGCUCAUGAGAAGAAGUAGAGACAGAAGUAUCGUGAGAGUAGUCCUGCGUCUAAGAGGGAGAUUGGAACUCUUCUCGGUUGAAGUCGAAGGCGUGGCUGCAAUCAAAUUUCGUAACUCAAUCCUCUCAAUGACCUAGCUUGACACCUUUAUAGUGGUAGGGCUCUUCAGAGUAACCUCCAGUAGGUGUAGGGUAACUGGUCCCUGUUGGCGAUGCGUAAC |  | 6 ± 7%
GS3303 (nucleic acid) sense: UUACCCUACACCUACUGGAGGUUACUCUGAAGAGCCCUACCACUAUAAAGGUGUCAAGCUAGGUCAUUGAGAGGAUUGAGUUACGAAAUUUGAUUGCAGCCACGCCUUCGACUUCAACCGAGAAGAGUUCCAAUCUCCCUCUUAGACGCAGGACUACUCUCACGAUACUUCUGUCUCUACUUCUUCUCAUGAGCACGCUAAUACUCUCUAAGCCUCCGUUGAUGUGUUGAAAGACAGGCACCUCAGUUUUGAUUCUAUUCAGCUCGGCAAACAUGUUGUGUACAUUCAUAGACUGAAUUU antisense: AAAUUCAGUCUAUGAAUGUACACAACAUGUUUGCCGAGCUGAAUAGAAUCAAAACUGAGGUGCCUGUCUUUCAACACAUCAACGGAGGCUUAGAGAGUAUUAGCGUGCUCAUGAGAAGAAGUAGAGACAGAAGUAUCGUGAGAGUAGUCCUGCGUCUAAGAGGGAGAUUGGAACUCUUCUCGGUUGAAGUCGAAGGCGUGGCUGCAAUCAAAUUUCGUAACUCAAUCCUCUCAAUGACCUAGCUUGACACCUUUAUAGUGGUAGGGCUCUUCAGAGUAACCUCCAGUAGGUGUAGGGUAA | 35 ± 5% | 15 ± 9%
GS3298 (nucleic acid) sense: AUGCCUUACAAGGAGAAGAGGUCCGUGAGAAUUUUGACUCAUCUUUUGCCGCUCUUUAUCAUGAUCUUGAUAUGGGAUUUACACCGAUCAACUUUACAUUUUACUGGGCACCUCUACCUUGGAAUCGUGCUCGUGAUCAUGCCCAAAGAACUGUUGCUAGGACUUAUAUGAAUAUAAUCCAAGCUCGUAGAGAAGAGAAAACGUCAACAACCCCCCUCCUCUUCCCCUUCCCCUUCAUUGAACCUCGCUCCAAGGGGGCUUUAUGGGAAUCUGCCUCGUAGUAUAAAGUUCUGCAGCUGGCUCUACGGAUUGCAUCUACAACAACUACAACAUCAUCAUCAUCAUCAUCUUCAUCUUCAUCUUCUCCACCUUCAUAAGCUUCUACGUUUUUGCAUGUUCAA antisense: UUGAACAUGCAAAAACGUAGAAGCUUAUGAAGGUGGAGAAGAUGAAGAUGAAGAUGAUGAUGAUGAUGAUGUUGUAGUUGUUGUAGAUGCAAUCCGUAGAGCCAGCUGCAGAACUUUAUACUACGAGGCAGAUUCCCAUAAAGCCCCCUUGGAGCGAGGUUCAAUGAAGGGGAAGGGGAAGAGGAGGGGGGUUGUUGACGUUUUCUCUUCUCUACGAGCUUGGAUUAUAUUCAUAUAAGUCCUAGCAACAGUUCUUUGGGCAUGAUCACGAGCACGAUUCCAAGGUAGAGGUGCCCAGUAAAAUGUAAAGUUGAUCGGUGUAAAUCCCAUAUCAAGAUCAUGAUAAAGAGCGGCAAAAGAUGAGUCAAAAUUCUCACGGACCUCUUCUCCUUGUAAGGCAU | 22 ± 5% | 7 ± 7%
GS3300 (nucleic acid) sense: GUAUCAACCAUUGCCUCUCCAAACCUUUCACCAACAACUUCCUUUUCAUCUUUUGUACGAACAGAAACGCCUGAUUCCAGUCUGCCAUUUAUAGAAAAUCCAGUGGCUAGACAAAAUGCACAUUGUAGUAGUAAGAGUGUUGGCAAUGGAAAUGGAAUUUUUAACUUGGACAUGAAUCUUUUGGCUUCUGCUGCUAUUAGGGUGGAAGGGAAUCACUCAUCAAACGCUUGUCAUCUCCCCCGAUACAAUAAAUCAUGCUGCGACCUCAGUGCGUACAAGAGUCGUUCUCAUUUUGCCUCAUCAUCACUUGUUCAGUCUCAUCCACCUCCGACAUUAGACAAGCUCAAUCAUUGCAUUAAGAGGUAUAUGAAGCGUUCACGAACUGACU antisense: AGUCAGUUCGUGAACGCUUCAUAUACCUCUUAAUGCAAUGAUUGAGCUUGUCUAAUGUCGGAGGUGGAUGAGACUGAACAAGUGAUGAUGAGGCAAAAUGAGAACGACUCUUGUACGCACUGAGGUCGCAGCAUGAUUUAUUGUAUCGGGGGAGAUGACAAGCGUUUGAUGAGUGAUUCCCUUCCACCCUAAUAGCAGCAGAAGCCAAAAGAUUCAUGUCCAAGUUAAAAAUUCCAUUUCCAUUGCCAACACUCUUACUACUACAAUGUGCAUUUUGUCUAGCCACUGGAUUUUCUAUAAAUGGCAGACUGGAAUCAGGCGUUUCUGUUCGUACAAAAGAUGAAAAGGAAGUUGUUGGUGAAAGGUUUGGAGAGGCAAUGGUUGAUAC | 9 ± 5% | 4 ± 8%
GS3302 (nucleic acid) sense: UCUGAAGAGCCCUACCACUAUAAAGGUGUCAAGCUAGGUCAUUGAGAGGAUUGAGUUACGAAAUUUGAUUGCAGCCACGCCUUCGACUUCAACCGAGAAGAGUUCCAAUCUCCCUCUUAGACGCAGGACUACUCUCACGAUACUUCUGUCUCUACUUCUUCUCAUGAGCACGCUAAUACUCUCUAAGCCUCCGUUGAUGUGUUGAAAGACAGGCACCUCAGUUUUGAUUCUAUUCAGCUCGGCAAACAUG antisense: CAUGUUUGCCGAGCUGAAUAGAAUCAAAACUGAGGUGCCUGUCUUUCAACACAUCAACGGAGGCUUAGAGAGUAUUAGCGUGCUCAUGAGAAGAAGUAGAGACAGAAGUAUCGUGAGAGUAGUCCUGCGUCUAAGAGGGAGAUUGGAACUCUUCUCGGUUGAAGUCGAAGGCGUGGCUGCAAUCAAAUUUCGUAACUCAAUCCUCUCAAUGACCUAGCUUGACACCUUUAUAGUGGUAGGGCUCUUCAGA | 31 ± 5% | 22 ± 7%
GS3299 (nucleic acid) sense: CACCAGGAUCCACCUAAAGAUGAGCCAACCGAUCAGAAGUCUCUGGAGCUGAGGAGAACCUUAUUUUAUAGUAUUUACUCUCUUGAUAGAUCUGUCAGUAUGGUUCACGCGCGCUCUUUUUCAUUUACCGACGAUUCGACUAGCGUUACUUUCCCAUCCAUUAAGAACGAGAAAUUACCAGUCGACACCAAAUUAAAACUAGGUAGGAAAUUCAAGAUUCAAUCCUCACUUUUAUUCAAACUUCGAAAGAUUCAGUCUUCAUGGUAUCACGAGCUUUUUCAAUCCAAAAAUGAUUUUAUAACAAAUCCAUCAACAUAUAUUCAGAAAGUGUGUCAAGAAAUGCAAGCAUGGGCUCAGUCGAUUCCCGAAUAUUUACCCACUCAUAUCAAAAAUUAUUU antisense: AAAUAAUUUUUGAUAUGAGUGGGUAAAUAUUCGGGAAUCGACUGAGCCCAUGCUUGCAUUUCUUGACACACUUUCUGAAUAUAUGUUGAUGGAUUUGUUAUAAAAUCAUUUUUGGAUUGAAAAAGCUCGUGAUACCAUGAAGACUGAAUCUUUCGAAGUUUGAAUAAAAGUGAGGAUUGAAUCUUGAAUUUCCUACCUAGUUUUAAUUUGGUGUCGACUGGUAAUUUCUCGUUCUUAAUGGAUGGGAAAGUAACGCUAGUCGAAUCGUCGGUAAAUGAAAAAGAGCGCGCGUGAACCAUACUGACAGAUCUAUCAAGAGAGUAAAUACUAUAAAAUAAGGUUCUCCUCAGCUCCAGAGACUUCUGAUCGGUUGGCUCAUCUUUAGGUGGAUCCUGGUG |  | 14 ± 7%
